The values below come from publication PMC11417369, “DNA sequence and chromatin differentiate sequence-specific transcription factor binding in the human malaria parasite Plasmodium falciparum”.

The series concerns the target T1, HDP1 homeodomain-like (Plasmodium falciparum, UniProt Q8IKH4 2990-3078).
T1 sequence: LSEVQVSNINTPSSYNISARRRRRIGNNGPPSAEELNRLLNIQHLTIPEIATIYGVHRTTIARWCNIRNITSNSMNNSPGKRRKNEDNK
The series can be described thus: gcPBM; about 25 ug protein; PBS, 1% milk, 0.2 mg/ml BSA, salmon testes DNA, 0.03% Triton X-100. To be noted: tags: N-terminal GST (pGEX-4T-1), kept; chain copies: 2; label: surface-attached array probe.

B1: GTGCAC_site9990 (dsDNA)
DNA 1: TATATATATGTATATGTGCACAGTTTTCTTATTAAA
DNA 2: TTTAATAAGAAAACTGTGCACATATACATATATATA
For the molecule B1, the binding signal is 11.1 ln median PBM intensity, better of two orientations.

B2: GTGCAC_site10422 (dsDNA)
DNA 1: ATCAATAAATAAAATGTGCACATAATATATTAATAC
DNA 2: GTATTAATATATTATGTGCACATTTTATTTATTGAT
In the case of B2, the binding signal is 11.1 ln median PBM intensity, better of two orientations.

B3: GTGCAC_site9896 (dsDNA)
DNA 1: TCTTACGGATTCATTGTGCACATATATATATATATA
DNA 2: TATATATATATATATGTGCACAATGAATCCGTAAGA
B3: the binding signal is 11.1 ln median PBM intensity, better of two orientations.

B4: GTGCAC_site9596 (dsDNA)
DNA 1: TATATTTTTATGTGTGTGCACAAAATAACAAAATAT
DNA 2: ATATTTTGTTATTTTGTGCACACACATAAAAATATA
As to B4, the binding signal is 11.4 ln median PBM intensity, better of two orientations.

B5: GTGCAC_site10194 (dsDNA)
DNA 1: AATTTTCCATAGATTGTGCACAAATTTTTATTTTGT
DNA 2: ACAAAATAAAAATTTGTGCACAATCTATGGAAAATT
B5: the binding signal was 11.3 ln median PBM intensity, better of two orientations.

B6: GTGCAC_site9651 (dsDNA)
DNA 1: AATCGATAAAATGTTGTGCACATATTTTTATATTTA
DNA 2: TAAATATAAAAATATGTGCACAACATTTTATCGATT
For the molecule B6, the binding signal was 11.2 ln median PBM intensity, better of two orientations.

B7: GTGCAC_site9799 (dsDNA)
DNA 1: TATTATAATATATTTGTGCACATAATATCTCCGCTA
DNA 2: TAGCGGAGATATTATGTGCACAAATATATTATAATA
For B7, the binding signal is 11.1 ln median PBM intensity, better of two orientations.

B8: GTGCAC_site9536 (dsDNA)
DNA 1: AATAATATACCTCTTGTGCACATATTAAAAGTTCAT
DNA 2: ATGAACTTTTAATATGTGCACAAGAGGTATATTATT
Turning to B8, the binding signal was 11.3 ln median PBM intensity, better of two orientations.

B9: GTGCAC_site10617 (dsDNA)
DNA 1: GAGGTCTTTTTTAATGTGCACATATATATATATATA
DNA 2: TATATATATATATATGTGCACATTAAAAAAGACCTC
On to B9, for which the binding signal was 11 ln median PBM intensity, better of two orientations.

B10: GTGCAC_site10054 (dsDNA)
DNA 1: GTCTATATATTTTAGGTGCAACGTAAATGTAAAAAT
DNA 2: ATTTTTACATTTACGTTGCACCTAAAATATATAGAC
On to B10, for which the binding signal was 11.5 ln median PBM intensity, better of two orientations.

B11: GTGCAC_site10602 (dsDNA)
DNA 1: GTTGTATACAATAATGTGCACATATTAATTTGAACT
DNA 2: AGTTCAAATTAATATGTGCACATTATTGTATACAAC
B11: the binding signal was 11.2 ln median PBM intensity, better of two orientations.

B12: GTGCAC_site10701 (dsDNA)
DNA 1: TAATACATAAATAATGTGCACATGGAAATATATCTT
DNA 2: AAGATATATTTCCATGTGCACATTATTTATGTATTA
Take B12: the binding signal is 11.2 ln median PBM intensity, better of two orientations.

B13: GTGCAC_site9859 (dsDNA)
DNA 1: TACATAAATATATGTGTGCACAATTTCGTATATTTA
DNA 2: TAAATATACGAAATTGTGCACACATATATTTATGTA
Take B13: the binding signal was 11.1 ln median PBM intensity, better of two orientations.

B14: GTGCAC_site9621 (dsDNA)
DNA 1: TATATATATAAGATTGTGCACATTAAAATGATAGAA
DNA 2: TTCTATCATTTTAATGTGCACAATCTTATATATATA
On to B14, for which the binding signal is 11.1 ln median PBM intensity, better of two orientations.

B15: GTGCAC_site10755 (dsDNA)
DNA 1: TAATGCAACATTTATGTGCACATAAATATTTTTTAA
DNA 2: TTAAAAAATATTTATGTGCACATAAATGTTGCATTA
On to B15, for which the binding signal is 11.4 ln median PBM intensity, better of two orientations.

B16: GTGCAC_site10665 (dsDNA)
DNA 1: TATGTATATTTTTTTGTGCACATATATATATATATA
DNA 2: TATATATATATATATGTGCACAAAAAAATATACATA
B16: the binding signal is 11.3 ln median PBM intensity, better of two orientations.

B17: GTGCAC_site9671 (dsDNA)
DNA 1: GTTACAGAGAATGTTGTGCACATATCAATAATATAT
DNA 2: ATATATTATTGATATGTGCACAACATTCTCTGTAAC
For the molecule B17, the binding signal was 11.4 ln median PBM intensity, better of two orientations.

B18: GTGCAC_site10327 (dsDNA)
DNA 1: AAATTATGCATCGAGGTGCGTCTTAAAATATAGTGG
DNA 2: CCACTATATTTTAAGACGCACCTCGATGCATAATTT
With B18, the binding signal is 11.2 ln median PBM intensity, better of two orientations.

B19: GTGCAC_site9405 (dsDNA)
DNA 1: TAAAAATAGGAGTGTGTGCACATAAATTATATACTA
DNA 2: TAGTATATAATTTATGTGCACACACTCCTATTTTTA
With B19, the binding signal was 11.2 ln median PBM intensity, better of two orientations.

B20: GTGCAC_site10009 (dsDNA)
DNA 1: AAATATAGAATACATGTGCACATAATATATATATAT
DNA 2: ATATATATATATTATGTGCACATGTATTCTATATTT
Turning to B20, the binding signal is 11.3 ln median PBM intensity, better of two orientations.

B21: GTGCAC_site9931 (dsDNA)
DNA 1: ATAAAAATAAAAAGTGTGCACACAAAAATATATATA
DNA 2: TATATATATTTTTGTGTGCACACTTTTTATTTTTAT
For B21, the binding signal is 11.3 ln median PBM intensity, better of two orientations.

B22: GTGCAC_site9761 (dsDNA)
DNA 1: ACATAATATACTATTGTGCACATATATATATATATA
DNA 2: TATATATATATATATGTGCACAATAGTATATTATGT
Take B22: the binding signal is 11.2 ln median PBM intensity, better of two orientations.

B23: GTGCAC_site10138 (dsDNA)
DNA 1: TATTTATAAATATGTGTGCACAATTTATTTTATAAT
DNA 2: ATTATAAAATAAATTGTGCACACATATTTATAAATA
Take B23: the binding signal was 11 ln median PBM intensity, better of two orientations.

B24: GTGCAC_site10210 (dsDNA)
DNA 1: ATTGAATATGGATATGTGCACATATGTATATAAGTA
DNA 2: TACTTATATACATATGTGCACATATCCATATTCAAT
B24: the binding signal is 11.1 ln median PBM intensity, better of two orientations.

B25: GTGCAC_site9801 (dsDNA)
DNA 1: ATCATCTTTATTCAAGTGCACTGAAAATTTTTTATA
DNA 2: TATAAAAAATTTTCAGTGCACTTGAATAAAGATGAT
Turning to B25, the binding signal was 11.2 ln median PBM intensity, better of two orientations.

B26: GTGCAC_site9812 (dsDNA)
DNA 1: TGTTTTATTTTTTTTGTGCACATACCTTTAGCATCA
DNA 2: TGATGCTAAAGGTATGTGCACAAAAAAAATAAAACA
Turning to B26, the binding signal was 11.4 ln median PBM intensity, better of two orientations.

B27: GTGCAC_site10672 (dsDNA)
DNA 1: AATTTCAAATTGTATGTGCACATGTAGAAGTACTTT
DNA 2: AAAGTACTTCTACATGTGCACATACAATTTGAAATT
Turning to B27, the binding signal was 11.1 ln median PBM intensity, better of two orientations.

B28: GTGCAC_site10342 (dsDNA)
DNA 1: TTTTTAAACCATGTTGTGCACATTTTTTTTGGATTT
DNA 2: AAATCCAAAAAAAATGTGCACAACATGGTTTAAAAA
In the case of B28, the binding signal was 11.3 ln median PBM intensity, better of two orientations.

B29: GTGCAC_site9822 (dsDNA)
DNA 1: ATCGTGTTAAATGTTGTGCACATATAAATTACAAAA
DNA 2: TTTTGTAATTTATATGTGCACAACATTTAACACGAT
In the case of B29, the binding signal is 11.3 ln median PBM intensity, better of two orientations.

B30: GTGCAC_site9584 (dsDNA)
DNA 1: TGTAATAATATTTATGTGCACATATATTAAACTATA
DNA 2: TATAGTTTAATATATGTGCACATAAATATTATTACA
With B30, the binding signal is 11.1 ln median PBM intensity, better of two orientations.

B31: GTGCAC_site9581 (dsDNA)
DNA 1: TTATTACACACATATGTGCACATATAAAAGTACACG
DNA 2: CGTGTACTTTTATATGTGCACATATGTGTGTAATAA
B31: the binding signal was 11.1 ln median PBM intensity, better of two orientations.

B32: GTGCAC_site9611 (dsDNA)
DNA 1: TATGAAACGATATATGTGCACATGAGGGAATATAGA
DNA 2: TCTATATTCCCTCATGTGCACATATATCGTTTCATA
Consider B32, for which the binding signal is 11.3 ln median PBM intensity, better of two orientations.

B33: GTGCAC_site9742 (dsDNA)
DNA 1: GAAAAATTTTTATATGTGCACATGTTATATATAATT
DNA 2: AATTATATATAACATGTGCACATATAAAAATTTTTC
Regarding B33, the binding signal is 11.2 ln median PBM intensity, better of two orientations.

B34: GTGCAC_site10407 (dsDNA)
DNA 1: CCTTTTTATCTTTTTGTGCACAGACCTTTTTTAAAT
DNA 2: ATTTAAAAAAGGTCTGTGCACAAAAAGATAAAAAGG
With B34, the binding signal is 11.2 ln median PBM intensity, better of two orientations.

B35: GTGCAC_site10777 (dsDNA)
DNA 1: ATAATATATACGTGTGTGCACATGACAAAAGCATAT
DNA 2: ATATGCTTTTGTCATGTGCACACACGTATATATTAT
In the case of B35, the binding signal is 11.1 ln median PBM intensity, better of two orientations.

B36: GTGCAC_site10136 (dsDNA)
DNA 1: ATGATCTGTTTGTTTGTGCACATATATATATATTAA
DNA 2: TTAATATATATATATGTGCACAAACAAACAGATCAT
Turning to B36, the binding signal is 11.3 ln median PBM intensity, better of two orientations.

B37: GTGCAC_site10770 (dsDNA)
DNA 1: TATATACATTTTTATGTGCACATTTTATTTTTAAAT
DNA 2: ATTTAAAAATAAAATGTGCACATAAAAATGTATATA
As to B37, the binding signal was 11.4 ln median PBM intensity, better of two orientations.

B38: GTGCAC_site10419 (dsDNA)
DNA 1: TTTTCTTTTTTTTTTGTGCACATAATATATAATTAT
DNA 2: ATAATTATATATTATGTGCACAAAAAAAAAAGAAAA
For the molecule B38, the binding signal is 11.2 ln median PBM intensity, better of two orientations.

B39: GTGCAC_site10523 (dsDNA)
DNA 1: TCGTTTCATAATATTGTGCACATATATATTTACAAT
DNA 2: ATTGTAAATATATATGTGCACAATATTATGAAACGA
Consider B39, for which the binding signal was 11.5 ln median PBM intensity, better of two orientations.

B40: GTGCAC_site10133 (dsDNA)
DNA 1: AATTTATATAATTTTGTGCACAATATTCATGTATAT
DNA 2: ATATACATGAATATTGTGCACAAAATTATATAAATT
As to B40, the binding signal was 11.2 ln median PBM intensity, better of two orientations.

B41: GTGCAC_site10451 (dsDNA)
DNA 1: ATGTTATAATTTAGTGTGCACATATTAAGAGGAACA
DNA 2: TGTTCCTCTTAATATGTGCACACTAAATTATAACAT
As to B41, the binding signal is 11.4 ln median PBM intensity, better of two orientations.
